Experimental data taken from US7167802B2, “Methods for identifying agents that interact with MAP kinase activated protein kinase 2” (Wyeth, priority 2002, dated 2007).
Where two headings read alike, the source gives them in different places.

Tests used:
MK2 = target: T1, MK2 (Homo sapiens, UniProt P49137); experiment: MK2 kinase kinetics, continuous pyruvate kinase/lactate dehydrogenase coupled assay at 340 nm; type: biochemical; conditions: for Km: 25° C.
T1 construct: made in house; host or cells: E. coli BL21 (DE3)
Procedure: Activation of MK2 Constructs. The MK2 constructs 41–400 and 41–364 were activated by the phosphorylation of the constructs by p38 MAP kinase. The activation was done in 20 mM HEPES (pH 7.5), 10 mM MgCl2, 2 mM DTT, 0.50 mM ATP, 0.2 mg/ml MK2 and 0.125 μg activated p38. The reaction was incubated at 25° C. for 1–2 hour then placed on ice to be used for kinetic analysis.
Kinase Kinetics. The rate of MK2 kinase was characterized in 20 mM HEPES (pH 7.5), 10 mM MgCl2, 2 mM DTT and 100 mM NaCl. The kinetics was followed by linking the turnover of ATP is to the turnover of NADH to NAD. This was followed spectrophotometrically at 340 nm. The continuos assay contained 20 units pyruvate kinase, 30 units lactate dehydrogenase, 0.25 mM NADH, 2 mM PEP and 1.6 to 8.0 μg/mL MK2. For determining the apparent Km for ATP, the ATP concentration was varied from 0.005 to 0.25 mM while the peptide was held constant at 0.2 mM for activated MK-2 or 1.0 mM for the constitutively active form of MK-2 (41–364). For determining the apparent Km for LSP-1, the LSP-1 concentration was varied from 0.01 to 0.5 mM while ATP was held constant at 2 mM. The kinetic analysis was carried out in a 96-well plate at 25° C., on a Molecular Devices spectrophotometer.
Substrate Kinetics. Peptide LSP, based on the protein substrate of MK-2 lymphocyte/leukocyte specific protein, was used for the investigation of the kinetic mechanism for the enzyme MK-2. Data was fit to equation 1 for normal Michaelis-Menten kinetics. v=Vmax[S]/Km+[S] (1) where [S] is the substrate, Vmax is the maximum enzyme velocity, Km is the Michaelis constant.

[1] = tested on: LPS-induced cytokine synthesis in human monocytes; conditions: cited from earlier work
[2] = tested on: MAP kinase activated protein kinase 2 (MK2); conditions: cited from earlier work
[3] = p38 + (construct activated by p38 phosphorylation)
[4] = p38 + (construct activated by p38 phosphorylation), ATP held at 2 mM, read-out: Apparent Km (LSP-1)
[5] = p38 activated / phosphorylated by p38

T1 sequence (P49137 with tags, fused parts or gaps): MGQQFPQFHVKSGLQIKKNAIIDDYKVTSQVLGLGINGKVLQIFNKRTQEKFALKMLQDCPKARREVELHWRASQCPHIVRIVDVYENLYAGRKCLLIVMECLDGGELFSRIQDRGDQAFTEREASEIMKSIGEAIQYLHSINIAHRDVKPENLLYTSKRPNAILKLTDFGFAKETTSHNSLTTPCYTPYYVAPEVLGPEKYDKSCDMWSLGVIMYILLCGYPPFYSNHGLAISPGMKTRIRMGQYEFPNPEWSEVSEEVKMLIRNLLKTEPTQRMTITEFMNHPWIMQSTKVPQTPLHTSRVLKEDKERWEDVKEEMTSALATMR

| binding of the peptide substrate LSP-1, fold weaker than to p38 activated MK2 41-400 (MK2; unphosphorylated MK2 41-364 vs p38 activated MK2 41-400) | Molecule | Vmax (MK2; not phosphorylated) [µmol/min/mg] | Vmax (MK2; [3]) | Km (MK2; [4]) [µM] | Vmax (MK2; [5]) [µmol/min/mg] | Vmax (MK2; p38 − (not phosphorylated)) | Km (MK2; p38 − (not phosphorylated), ATP held at 2 mM, read-out: Apparent Km (LSP-1)) [µM] | Km (MK2; p38 − (not phosphorylated), LSP-1 peptide held at 1.0 mM, listed as MK2 41-364, read-out: Apparent Km (ATP)) [µM] | Km (MK2; p38 − (not phosphorylated), LSP-1 peptide held at 1.0 mM, read-out: Apparent Km (ATP)) [µM] | Km for LSP-1 peptide substrate, fold higher compared to p38 phosphorylated MK2 41-400 (MK2; unphosphorylated MK2 41-364) [fold] | Vmax, fold lower compared to p38 phosphorylated MK2 41-400 (MK2; unphosphorylated MK2 41-364) [fold] | LPS-induced cytokine synthesis [1] | activation of MK2 [2] | Km (MK2; p38 + (construct activated by p38 phosphorylation), LSP-1 peptide held at 0.2 mM, listed as MK2 41-400, read-out: Apparent Km (ATP)) [µM] | Km (MK2; p38 + (construct activated by p38 phosphorylation), LSP-1 peptide held at 0.2 mM, read-out: Apparent Km (ATP)) [µM] |
| --- | --- | --- | --- | --- | --- | --- | --- | --- | --- | --- | --- | --- | --- | --- | --- |
| more than 40 fold | 41-364: constitutively active MK2 polypeptide, residues 41–364, in which a portion of the C-terminal autoinhibitory domain was removed [Construct 41-364] | 0.076 | 11 + 14 μmole/min/mg | 20 | 11 | 0.076 + 0.004 μmole/min/mg | 584 | 7 | 15 | 45 | 100 | – | – | – | – |
| – | C[S+]([O-])c1ccc(-c2nc(-c3ccncc3)c(-c3ccc(F)cc3)[nH]2)cc1 (stereo not shown) [SB203580] | – | – | – | – | – | – | – | – | – | – | inhibits LPS-induced cytokine synthesis | prevents the activation | – | – |
| – | 41-400: MK2 construct, amino acid residues 41–400, lacking the first 40 residues of the proline rich domain [Construct 41-400] | – | 8.9 + 0.1 μmole/min/mg | 13 | 8.9 | no activity | – | – | – | – | – | – | – | 15 | 7 |
